The results in this text go back to paper PMC8234197.

The target of assay [1] is MsuD^ΔC–16 (MsuD with the last 16 residues of the C terminus deleted) (Pseudomonas fluorescens). The assay can be described thus: SEC; analytical gel filtration, Enrich SEC 650 10 × 300 column, 4 °C, 50 mM sodium phosphate, 150 mM NaCl, pH 7.2, with high-molecular-weight standards. (In gel filtration, larger molecules generally elute earlier.)
The target is the same in assay [2].
Assay [3] deals with alkanesulfonate monooxygenase MsuD from Pseudomonas fluorescens (wildtype) (Pseudomonas fluorescens). Briefly: crystal structure; cocrystal with FMN and MS− (P6_1, four chains per asymmetric unit); unliganded and FMN- or FMN/MS−-soaked crystals (P2_1, two tetramers per asymmetric unit).
For assay [4] the target is unchanged. The assay can be described thus: SEC; analytical gel filtration, Enrich SEC 650 10 × 300 column, 4 °C, 50 mM sodium phosphate, 150 mM NaCl, pH 7.2, with high-molecular-weight standards.
Assay [5] has the same target.

Consider “MsuD^ΔC–16 (MsuD with the last 16 residues of the C terminus deleted) (domain or fragment)”, for which, in assay [1], the stoichiometry N (as a rule, the number of molecules, sites or subunits per partner or assembly) worked out at 2. This substance yielded a sulfite formation from MS− in a coupled reaction with MsuE (DTNB assay) (µmol/min/µmol enzyme) in assay [2] of 0.45.

With “alkanesulfonate monooxygenase MsuD from Pseudomonas fluorescens (wildtype) (enzyme)”, the stoichiometry N in assay [3] and in assay [4] was 4 throughout. The same substance gave a sulfite formation from MS− in a coupled reaction with MsuE (DTNB assay), wildtype under the conditions of the MsuD^ΔC–16 test (µmol/min/µmol enzyme) in assay [5] of 5.7.
